{
  "source": "paper PMC11024254",
  "about": "“The DmsABC S-oxide reductase is an essential component of a novel, hypochlorite-inducible system of extracellular stress defense in Haemophilus influenzae” (Frontiers in Microbiology, 2024)",
  "key": {"[1]": {"system": "[O-][n+]1cccnc1", "assay": "purified protein", "details": "purified enzyme, 0.2 mM methyl viologen, 0.3 mM dithionite, 20 mM sodium phosphate pH 6.8, 37°C"}, "[2]": {"system": "NC(=O)c1ccc[n+]([O-])c1", "assay": "purified protein", "details": "purified enzyme, 0.2 mM methyl viologen, 0.3 mM dithionite, 20 mM sodium phosphate pH 6.8, 37°C"}},
  "data": [
    {"substance": "MtsZ (HiMtsZ) (Haemophilus influenzae Rd KW20)", "values": [
      {"measurement": "Km", "setting": "[1]", "value": "35 ± 8", "unit": "µM"},
      {"measurement": "kcat", "setting": "[1]", "value": "33.2 ± 2.7", "unit": "s⁻¹"},
      {"measurement": "Km", "setting": "[2]", "value": "46 ± 8", "unit": "µM"},
      {"measurement": "kcat", "setting": "[2]", "value": "93 ± 5", "unit": "s⁻¹"}
    ]}
  ]
}
